Results as given in US20150038408A1 (University of Washington, published 2015).
Read-outs that look alike come from different tables or passages of the source.

Legend:
[1] = target: T1, A/South Carolina/1/1918 (H1N1) hemagglutinin ectodomain (Influenza A virus A/South …)
[2] = target: T1, A/South Carolina/1/1918 (H1N1) …; remark: listed apart in the source
[3] = target: T1, A/South Carolina/1/1918 (H1N1) …; remark: listed apart in the source
[4] = target: T1, A/South Carolina/1/1918 (H1N1) …; remark: listed apart in the source

B1: HB36.1 (Asp47Ser) (designed binder)
chain: MSNAMDGQQLNRLLLEWIGAWDPFGLGKDAYDVEAEAVLQAVYETESAFDLAMRIMWIYAFAFNRPIPFPHAQKLARRLLELKQAASSPLPLE
B1 was tested, and the “fold increase in binding affinity against HB36” value [1] was roughly 40 fold, the Kd [2] was 2 to 5 nM and the Kd [3] was 5 nM.

B2: HB80.1 (Met26Thr, Asn36Lys) (designed binder)
chain: MASTRGSGRPWDFSENLAFELALAFTNKDTPDRWAKVAQYVSGRTPEEVKKHYEILVEDIKYIESGKVPFPNYRTTGGNMKTDEKRFRNLKIRLE
Binder B2 has a Kd [4] of 7.5 nM and a Kd [3] of 7.5 nM.
